The values below come from publication PMC8864064, “Molecular Chaperone BRICHOS Inhibits CADASIL-Mutated NOTCH3 Aggregation In Vitro” (Frontiers in Molecular Biosciences, 2022).

A value given as a limit tells only on which side of the number the result lay.

B2: NOTCH3 EGF1–5 R133C (CADASIL-mutated truncated human Notch3 extracellular domain, amino acids 1–234) (domain or fragment)
chain: not shown
notes: signal peptide in the construct; human NOTCH3 extracellular domain, first five EGF-like repeats, amino acids 1–234, with the CADASIL mutation R133C (in EGF3); codon-optimized construct derived from Duering et al., 2011; R133C is a common CADASIL mutation found in patients; also called N3 EGF1–5 R133C; R133C mutant

Data set [1] concerns the molecule itself. Kind of data set: native gel or EMSA; N3 EGF1–5 proteins at 30 µM in 1 × PBS, 37°C for 80 h with and without Bri2 BRICHOS at 1:1 and 1:2 molar; native loading buffer free of DTT and SDS; 6% native PAGE.
Data set [2] concerns the target B2. Kind of data set: cell-based or functional assay.

B1: NOTCH3 EGF1–5 wildtype (truncated human Notch3 extracellular domain, first five EGF-like repeats, amino acids 1–234) (domain or fragment)
chain: not shown
notes: signal peptide in the construct; human NOTCH3 extracellular domain, first five EGF-like repeats, amino acids 1–234; codon-optimized construct derived from Duering et al., 2011; also called N3 EGF1–5 WT; WT N3 EGF1–5
Turning to B1, in data set [1], the binding result is “binds”.

Regarding B2, the binding result in data set [1] is given as “binds”.

B3: Recombinant human Bri2 BRICHOS domain (domain or fragment, UniProt Q9Y287 137-231, looked up)
chain: FADSDPANIVHDFNKKLTAYLDLNLDKCYVIPLNTSIVMPPRNLLELLINIKAGTYLPQSYLIHEHMVITDRIENIDHLGFFIYRLCHDKETYKL
As to B3, in data set [2], the “final aggregation intensity of R133C by turbidity at 360 nm, 37°C, 10 µM, BRICHOS at 1:1 molar ratio” value was ≤ 50 % reduction.
